# System: MukB (Escherichia coli)
# Test: pull-down (MU topological loading assay)
# Details: no ATP, 750 mM KCl wash, MU assay: low salt 25 mM KCl loading (37 °C), His-tag affinity beads, typically 7.3 pmol MukB and 100 ng DNA, SSB EMSA: HKD buffer (25 mM …)
row,Substance,binding signal (% DNA retrieved)
1,cccDNA (pUC19/pUC119),4.6
2,ldsDNA,0.6
3,pUC119 cssDNA,10.6
